The source of these data is publication doi:10.1101/2024.01.22.576614.

Read-outs that look alike come from different tables or passages of the source.

What all share (test): two-hybrid
Assay [1] addresses Leu zipper (Zip).
In assay [2] the target is Leu zipper (Zip). The source holds these as a separate data set.
The target of assay [3] is cAMP-binding transcriptional regulator Clr (Sinorhizobium meliloti).

Chain of Leu zipper (Zip) (P03069 whole entry): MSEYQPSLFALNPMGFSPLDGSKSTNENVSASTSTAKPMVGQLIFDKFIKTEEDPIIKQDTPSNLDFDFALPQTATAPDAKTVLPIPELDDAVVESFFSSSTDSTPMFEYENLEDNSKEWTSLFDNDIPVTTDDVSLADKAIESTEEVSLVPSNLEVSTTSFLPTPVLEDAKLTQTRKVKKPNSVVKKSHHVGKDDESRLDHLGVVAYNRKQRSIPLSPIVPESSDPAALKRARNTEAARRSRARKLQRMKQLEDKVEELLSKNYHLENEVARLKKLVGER

Consider Leu zipper (Zip) (domain or fragment), for which the values for the BACTH β-galactosidase activity with Leu zipper (Zip) [1] and in the assay with Leu zipper (Zip) [2] were 1640 Miller-Units and 1370 Miller-Units, respectively.

For “LysR-type transcriptional regulator Smc01817 (natural protein)”, the BACTH β-galactosidase activity in assay [3] was 460 MU.
